Test results from the supplement of paper PMC12042874.
± gives the uncertainty stated by the source.

Assay: amyloid nucleation score (Sup35N fusion, yeast selection) (log enrichment); library NNK3; higher = more nucleation; inactive = no reads after selection
Outline: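 Using DiMSum, nucleation scores were taken as the log enrichment of output over input reads, centred on the mode score of non-aggregating sequences. The input and output reads came from Illumina sequencing of plasmid inserts, with sequences under 100 input reads excluded. The yeast were psi-negative, expressed Sup35N fused to peptides of 20 random codons, were induced with 100 μM copper sulfate for 24 hours, and were grown 7 days at 30°C on medium lacking adenine and uracil.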

**Q.** Which amyloid nucleation score does the source give for WVVRKVHSLSHCLGCHPESW here?
**A.** 0.231 ± 0.57

**Q.** For WVWMTETVLWFRYKQVACGW, which amyloid nucleation score is on record?
**A.** inactive

**Q.** With WVYNGIIYGRLFMDLLWTGL as the substance, how does the amyloid nucleation score read?
**A.** inactive

**Q.** Which amyloid nucleation score does the source give for WYGCVAWYVVKSMFYS here?
**A.** inactive

**Q.** Which amyloid nucleation score does the source give for WYMGFSAVLVCFRLSRPVT here?
**A.** inactive

**Q.** For WYNNYFRQVPSCVKDGRSHP, which amyloid nucleation score is on record?
**A.** inactive

**Q.** With WYPLGRPRVLINYETPTSVM as the substance, how does the amyloid nucleation score read?
**A.** inactive

**Q.** With WYSRTDCNKTAENSCSTKFI as the substance, how does the amyloid nucleation score read?
**A.** 0.611 ± 0.17

**Q.** With WYVFMCNGSWFLRNCRNLSY as the substance, how does the amyloid nucleation score read?
**A.** 0.144 ± 0.78

**Q.** Which amyloid nucleation score does the source give for YAALWITYCLSSTTSRDDLD here?
**A.** inactive

**Q.** Which amyloid nucleation score does the source give for YAEPYRRDVPGSCEYLTMM here?
**A.** inactive

**Q.** With YASVRVQFCCIFKSADRASP as the substance, how does the amyloid nucleation score read?
**A.** 1.9 ± 0.088

**Q.** With YAVSLMIFGFWGSSMFSHPS as the substance, how does the amyloid nucleation score read?
**A.** 0.779 ± 0.11

**Q.** For YCALLRNAITVV, which amyloid nucleation score is on record?
**A.** inactive

**Q.** For YCCSGMWVMRSVHSHEIGYL, which amyloid nucleation score is on record?
**A.** 0.966 ± 0.18

**Q.** With YCDNYYSLMSTTEEFPRVCV as the substance, how does the amyloid nucleation score read?
**A.** inactive

**Q.** For YCFDI, which amyloid nucleation score is on record?
**A.** inactive

**Q.** Which amyloid nucleation score does the source give for YCKFDS here?
**A.** 0.705 ± 0.12

**Q.** Which amyloid nucleation score does the source give for YCTRGNSTNLEYELECLVIF here?
**A.** inactive

**Q.** Which amyloid nucleation score does the source give for YCVFGRNCDNKAVVLIGGNP here?
**A.** inactive

**Q.** Which amyloid nucleation score does the source give for YCVQCR here?
**A.** inactive

**Q.** Which amyloid nucleation score does the source give for YDLRIYSKRVDPF here?
**A.** inactive

**Q.** Which amyloid nucleation score does the source give for YDLVSNG here?
**A.** inactive

**Q.** Which amyloid nucleation score does the source give for YDMFMVSWLKEIDWMQDDPR here?
**A.** inactive

**Q.** Which amyloid nucleation score does the source give for YDWMFLYPTSIS here?
**A.** 0.319 ± 0.18

**Q.** For YEWKTRGW, which amyloid nucleation score is on record?
**A.** inactive

**Q.** With YFATRDFAWVFENGSIEGAT as the substance, how does the amyloid nucleation score read?
**A.** inactive

**Q.** For YFENLVEVRQIATFKTV, which amyloid nucleation score is on record?
**A.** inactive

**Q.** Which amyloid nucleation score does the source give for YFGDPSSRMKCFYPYVSVCR here?
**A.** inactive

**Q.** Which amyloid nucleation score does the source give for YFILIYWSQCSMWYYVFKYG here?
**A.** inactive

**Q.** Which amyloid nucleation score does the source give for YFINMRKYCTCPDMCEVLRI here?
**A.** 0.574 ± 0.18

**Q.** For YFKYTN, which amyloid nucleation score is on record?
**A.** 1.32 ± 0.15

**Q.** With YFLSDLQRKGSGLETVRVCR as the substance, how does the amyloid nucleation score read?
**A.** inactive

**Q.** For YFMVRWYCAGLDILCGLQEK, which amyloid nucleation score is on record?
**A.** inactive

**Q.** With YFNYSLFISVCS as the substance, how does the amyloid nucleation score read?
**A.** inactive

**Q.** For YFTNDQNKQGFHWMGYMSHI, which amyloid nucleation score is on record?
**A.** inactive

**Q.** With YFVCVEEVRKYMEPSELGVR as the substance, how does the amyloid nucleation score read?
**A.** inactive

**Q.** Which amyloid nucleation score does the source give for YFVTTVKVEALFQ here?
**A.** -0.23 ± 0.55

**Q.** Which amyloid nucleation score does the source give for YFYFVTHRDELGMSGPVTWA here?
**A.** inactive

**Q.** For YGFAVRLCCPSLNVFLTELL, which amyloid nucleation score is on record?
**A.** 0.612 ± 0.15

**Q.** With YGHFPQCVPLIFCYRRSMVT as the substance, how does the amyloid nucleation score read?
**A.** inactive

**Q.** With YGIAMTQTIVSCSEIESKLR as the substance, how does the amyloid nucleation score read?
**A.** inactive

**Q.** For YGLHTGKSKALQQRIVW, which amyloid nucleation score is on record?
**A.** inactive

**Q.** With YGLSGDKFRWM as the substance, how does the amyloid nucleation score read?
**A.** inactive

**Q.** Which amyloid nucleation score does the source give for YGLVGQFSTVGTKQALLLGT here?
**A.** inactive

**Q.** With YGMYC as the substance, how does the amyloid nucleation score read?
**A.** inactive

**Q.** With YGYALVFTFYVGLNSVNRLR as the substance, how does the amyloid nucleation score read?
**A.** 0.801 ± 0.3

**Q.** For YGYVIPSSQLPSWTLQRY, which amyloid nucleation score is on record?
**A.** inactive

**Q.** Which amyloid nucleation score does the source give for YHCNGPGSLWSTNLACRSME here?
**A.** inactive

**Q.** Which amyloid nucleation score does the source give for YIASNAWETWRRDRSYRKRL here?
**A.** inactive

**Q.** Which amyloid nucleation score does the source give for YIEAIYRDVPPECGTLLRTL here?
**A.** inactive

**Q.** Which amyloid nucleation score does the source give for YIFVT here?
**A.** inactive

**Q.** With YIGRRNMPNFSSMWMWSQGK as the substance, how does the amyloid nucleation score read?
**A.** inactive

**Q.** With YIIFLTMAHF as the substance, how does the amyloid nucleation score read?
**A.** 0.656 ± 0.29

**Q.** Which amyloid nucleation score does the source give for YIKLGYQYLYVGE here?
**A.** inactive

**Q.** Which amyloid nucleation score does the source give for YILIL here?
**A.** inactive

**Q.** For YIMSNLFGGNNLFGG, which amyloid nucleation score is on record?
**A.** inactive

**Q.** For YISFVFDRYNKSYGTARICK, which amyloid nucleation score is on record?
**A.** -0.506 ± 0.82

**Q.** With YIYSVEEYSRTSLIDDSVGW as the substance, how does the amyloid nucleation score read?
**A.** inactive

**Q.** For YKFEHVIFWNSFLNIKVEFS, which amyloid nucleation score is on record?
**A.** 1.56 ± 0.068

**Q.** For YKFFGDLKVAYFGKVKIE, which amyloid nucleation score is on record?
**A.** inactive

**Q.** With YKNEMGTIPCRRVTSNCLSY as the substance, how does the amyloid nucleation score read?
**A.** inactive

**Q.** For YKQCN, which amyloid nucleation score is on record?
**A.** inactive

**Q.** With YKRFMIPIKYCGGQRNTDVR as the substance, how does the amyloid nucleation score read?
**A.** inactive

**Q.** For YKRRKTVNWHQDCTAIFGGN, which amyloid nucleation score is on record?
**A.** inactive

**Q.** With YKVGRSHCGKKSEDLP as the substance, how does the amyloid nucleation score read?
**A.** inactive

**Q.** For YKVILTCSKC, which amyloid nucleation score is on record?
**A.** inactive

**Q.** For YKYDRFWKVFHQGRTLVAGG, which amyloid nucleation score is on record?
**A.** inactive

**Q.** With YLCYMEYVH as the substance, how does the amyloid nucleation score read?
**A.** inactive

**Q.** Which amyloid nucleation score does the source give for YLDLFLWIREMLYYTGSLRV here?
**A.** inactive

**Q.** With YLFWLYERRKGDYISPHVLR as the substance, how does the amyloid nucleation score read?
**A.** inactive

**Q.** For YLGEHRVVVRNSMSPQPWLS, which amyloid nucleation score is on record?
**A.** inactive

**Q.** For YLGGVRSII, which amyloid nucleation score is on record?
**A.** -0.402 ± 1.9

**Q.** With YLIYDRLSIQPDSSHHLVV as the substance, how does the amyloid nucleation score read?
**A.** -0.124 ± 0.62

**Q.** With YLLLDEVRSKYCWGISCTGY as the substance, how does the amyloid nucleation score read?
**A.** inactive

**Q.** Which amyloid nucleation score does the source give for YLMYSVESVRWTLIE here?
**A.** inactive

**Q.** For YLNPAFELFKRMSNRFFVLA, which amyloid nucleation score is on record?
**A.** -1.02 ± 1.9

**Q.** Which amyloid nucleation score does the source give for YLRVWPMRVYNMP here?
**A.** inactive

**Q.** For YLTMYDSNDIFTIVATVMST, which amyloid nucleation score is on record?
**A.** inactive

**Q.** With YLTVWFTKKLCVLFLFNIWK as the substance, how does the amyloid nucleation score read?
**A.** inactive

**Q.** Which amyloid nucleation score does the source give for YLVSYFNRGQSAFRFWDKFA here?
**A.** inactive

**Q.** With YLVYRNVTMVCPDRQH as the substance, how does the amyloid nucleation score read?
**A.** 0.375 ± 0.27

**Q.** With YLYCRAWIWLDNSMLSWS as the substance, how does the amyloid nucleation score read?
**A.** inactive

**Q.** For YLYVRYTFRYWVVNYRYNNG, which amyloid nucleation score is on record?
**A.** inactive

**Q.** For YMDPWYVIDHCLWRQMFLSE, which amyloid nucleation score is on record?
**A.** -0.557 ± 1

**Q.** For YMEAC, which amyloid nucleation score is on record?
**A.** inactive

**Q.** Which amyloid nucleation score does the source give for YMKDALNLRPLRSSTALFLS here?
**A.** inactive

**Q.** For YMLWDDMVEKYHCLSQRLGR, which amyloid nucleation score is on record?
**A.** inactive

**Q.** With YMNSTFQMFD as the substance, how does the amyloid nucleation score read?
**A.** 0.829 ± 0.19

**Q.** With YMVWMLNQDRSACGINIMSI as the substance, how does the amyloid nucleation score read?
**A.** 1.33 ± 0.12

**Q.** With YNDFCN as the substance, how does the amyloid nucleation score read?
**A.** 0.194 ± 0.27

**Q.** For YNDGVCIILFNLPFVCRRST, which amyloid nucleation score is on record?
**A.** 2.85 ± 0.05

**Q.** For YNERLALLGLMVSLNVSSHS, which amyloid nucleation score is on record?
**A.** inactive

**Q.** With YNFECLIFWSVKYLVCQHIT as the substance, how does the amyloid nucleation score read?
**A.** inactive

**Q.** For YNGGIRVTLT, which amyloid nucleation score is on record?
**A.** inactive

**Q.** For YNHSMGWVCSAFDAKVRILR, which amyloid nucleation score is on record?
**A.** inactive

**Q.** For YNLAGVFVIGHGNACATAFR, which amyloid nucleation score is on record?
**A.** 0.831 ± 0.3

**Q.** With YNMFNTLVDRVQLRGLCYGV as the substance, how does the amyloid nucleation score read?
**A.** inactive

**Q.** With YNPIGFRRLFTPTCLFITKL as the substance, how does the amyloid nucleation score read?
**A.** inactive

**Q.** Which amyloid nucleation score does the source give for YNRADSIRFQ here?
**A.** inactive

**Q.** Which amyloid nucleation score does the source give for YNSSTTVIDFTF here?
**A.** inactive

**Q.** For YNVRSFLTKVEWTYYFS, which amyloid nucleation score is on record?
**A.** 0.391 ± 0.16

**Q.** For YPCERYHRPHDQQNVDLTNL, which amyloid nucleation score is on record?
**A.** inactive

**Q.** For YPCEVLGCDAN, which amyloid nucleation score is on record?
**A.** inactive

**Q.** Which amyloid nucleation score does the source give for YPKACVI here?
**A.** inactive

**Q.** With YPLYASTS as the substance, how does the amyloid nucleation score read?
**A.** 1.07 ± 0.16

**Q.** With YPNDLTRVFDRDNNLLGTHG as the substance, how does the amyloid nucleation score read?
**A.** 0.551 ± 0.32

**Q.** With YPWVYLAGYFHFFDELVGIF as the substance, how does the amyloid nucleation score read?
**A.** inactive

**Q.** Which amyloid nucleation score does the source give for YPYSSVTRNILCVENRCTGW here?
**A.** inactive

**Q.** With YQCFVKELYKECISHWARRK as the substance, how does the amyloid nucleation score read?
**A.** inactive

**Q.** Which amyloid nucleation score does the source give for YQRVHTSCHHELSIHGSSCT here?
**A.** inactive

**Q.** For YQSTVFGCYTYSRLKCLRSA, which amyloid nucleation score is on record?
**A.** inactive

**Q.** With YRDRYLDPLWAD as the substance, how does the amyloid nucleation score read?
**A.** inactive

**Q.** Which amyloid nucleation score does the source give for YRHPTIECWSKMRCALVVCT here?
**A.** inactive

**Q.** For YRILRRYSDPAHEDIKRCTL, which amyloid nucleation score is on record?
**A.** inactive

**Q.** With YRILYGWSFMIRLILDVQRE as the substance, how does the amyloid nucleation score read?
**A.** inactive

**Q.** For YRLSLRH, which amyloid nucleation score is on record?
**A.** inactive

**Q.** For YRRLCGDCGFGTLRLDLLFV, which amyloid nucleation score is on record?
**A.** inactive
